{"source": "patent US20240408235", "experiment_in_all_cases": "cell_activity", "key": {"[1]": {"test_system": "AAT 37-38L.158 meganuclease (synthetic construct (I-CreI derived)?)", "settings": "HEK293, 25 ng RNA"}, "[2]": {"test_system": "AAT 37-38L.167 meganuclease (synthetic construct (I-CreI derived)?)", "settings": "HEK293, 25 ng RNA"}, "[3]": {"test_system": "AAT 37-38L.175 meganuclease (synthetic construct (I-CreI derived)?)", "settings": "HEK293, 25 ng RNA"}, "[4]": {"test_system": "AAT 37-38L.24 meganuclease (synthetic construct (I-CreI derived)?)", "settings": "HEK293, 25 ng RNA"}, "[5]": {"test_system": "AAT 37-38L.262 meganuclease (synthetic construct (I-CreI derived)?)", "settings": "PiZ mouse liver, LNP-A 0.5 mg/kg; 45% at low dose"}, "[6]": {"test_system": "AAT 37-38x.50 meganuclease (synthetic construct (I-CreI derived)?)", "settings": "PiZ mouse liver, AAV8 delivery with repair template"}, "[7]": {"test_system": "AAT 37-38x.61 meganuclease (synthetic construct (I-CreI derived)?)", "settings": "Hep3B, day 6, 50 ng mRNA"}, "[8]": {"test_system": "AAT 35-36x.70 meganuclease (synthetic construct (I-CreI derived)?)", "settings": "PiZ mouse liver, scAAV repair (3.5% ssAAV)"}, "[9]": {"test_system": "AAT 9-10x.311 meganuclease (synthetic construct (I-CreI derived)?)", "settings": "PiZ mouse liver, AAV8; groups 1, 3, 4 (~10% in group 2); site highly methylated"}, "[10]": {"test_system": "AAT 33-34x.13 meganuclease (synthetic construct (I-CreI derived)?)", "settings": "PiZ mouse liver, ssAAV repair (11% scAAV)"}, "[11]": {"test_system": "AAT 43-44L.105 meganuclease (synthetic construct (I-CreI derived)?)", "settings": "PiZ mouse liver, AAV8 delivery with repair template"}, "[12]": {"test_system": "AAT 43-44L.132 meganuclease (synthetic construct (I-CreI derived)?)", "settings": "HEK293, 25 ng RNA"}, "[13]": {"test_system": "AAT 43-44L.276 meganuclease (synthetic construct (I-CreI derived)?)", "settings": "HEK293, 25 ng RNA"}, "[14]": {"test_system": "AAT 43-44L.384 meganuclease (synthetic construct (I-CreI derived)?)", "settings": "HEK293, 25 ng RNA"}, "[15]": {"test_system": "AAT 43-44L.47 meganuclease (synthetic construct (I-CreI derived)?)", "settings": "HEK293, 25 ng RNA"}, "[16]": {"test_system": "AAT 43-44x.58 meganuclease (synthetic construct (I-CreI derived)?)", "settings": "PiZ mouse liver, AAV8 delivery with repair template"}, "[17]": {"test_system": "AAT 41-42L.104 meganuclease (synthetic construct (I-CreI derived)?)", "settings": "HEK293, 25 ng RNA"}, "[18]": {"test_system": "AAT 41-42L.153 meganuclease (synthetic construct (I-CreI derived)?)", "settings": "HEK293, 25 ng RNA"}, "[19]": {"test_system": "AAT 41-42L.185 meganuclease (synthetic construct (I-CreI derived)?)", "settings": "HEK293, 25 ng RNA"}, "[20]": {"test_system": "AAT 41-42L.294 meganuclease (synthetic construct (I-CreI derived)?)", "settings": "HEK293, 25 ng RNA"}, "[21]": {"test_system": "AAT 41-42L.42 meganuclease (synthetic construct (I-CreI derived)?)", "settings": "HEK293, 25 ng RNA"}, "[22]": {"test_system": "AAT 41-42x.32 meganuclease (synthetic construct (I-CreI derived)?)", "settings": "Hep3B, day 6, 50 ng mRNA"}}, "data": [{"sequence": "CCCCACTTTGCACAACTGGGGA (double strand) [AAT 37-38 recognition sequence]", "values": [{"measurement": "activity", "setting": "[1]", "result": 90, "unit": "% indels"}, {"measurement": "activity", "setting": "[2]", "result": 86, "unit": "% indels"}, {"measurement": "activity", "setting": "[3]", "result": 90, "unit": "% indels"}, {"measurement": "activity", "setting": "[4]", "result": 90, "unit": "% indels"}, {"measurement": "activity", "setting": "[5]", "result": 53, "unit": "% indels"}, {"measurement": "activity", "setting": "[6]", "result": 4, "unit": "% insertions"}, {"measurement": "activity", "setting": "[7]", "result": 80, "unit": "% indels"}]}, {"sequence": "GGCCTGGTCACACTTGGGTTTA (double strand) [AAT 35-36 recognition sequence]", "values": [{"measurement": "activity", "setting": "[8]", "result": 7.5, "unit": "% insertions"}]}, {"sequence": "TGCCCGCTCACACCAGACCCTG (double strand) [AAT 9-10 recognition sequence]", "values": [{"measurement": "activity", "setting": "[9]", "result": 20, "unit": "% indels"}]}, {"sequence": "TTCAGACAGTTGCTCAACCTCT (double strand) [AAT 33-34 recognition sequence]", "values": [{"measurement": "activity", "setting": "[10]", "result": 10, "unit": "% insertions"}]}, {"sequence": "AGGACCTAGATGTAGGATTCTG (double strand) [AAT 43-44 recognition sequence]", "values": [{"measurement": "activity", "setting": "[11]", "result": 14, "unit": "% insertions"}, {"measurement": "activity", "setting": "[12]", "result": 52, "unit": "% indels"}, {"measurement": "activity", "setting": "[13]", "result": 16, "unit": "% indels"}, {"measurement": "activity", "setting": "[14]", "result": 26, "unit": "% indels"}, {"measurement": "activity", "setting": "[15]", "result": 52, "unit": "% indels"}, {"measurement": "activity", "setting": "[16]", "result": 3, "unit": "% insertions"}]}, {"sequence": "TGAGGATCCTTGTGAGTGTTGG (double strand) [AAT 41-42 recognition sequence]", "values": [{"measurement": "activity", "setting": "[17]", "result": 50, "unit": "% indels"}, {"measurement": "activity", "setting": "[18]", "result": 50, "unit": "% indels"}, {"measurement": "activity", "setting": "[19]", "result": 20, "unit": "% indels"}, {"measurement": "activity", "setting": "[20]", "result": 40, "unit": "% indels"}, {"measurement": "activity", "setting": "[21]", "result": 77, "unit": "% indels"}, {"measurement": "activity", "setting": "[22]", "result": 17, "unit": "% indels"}]}]}
